Experimental data: patent US12404493B2, “Methods for the re-derivation of diverse pluripotent stem cell-derived brown fat cells” (AgeX Therapeutics, Inc., priority 2015, dated 2025)

B1: BMP4: Bone Morphogenetic Protein 4, member of the TGFβ superfamily (protein, UniProt P12644 293-408, looked up)
Bone morphogenetic protein 4: SPKHHSQRARKKNKNCRRHSLYVDFSDVGWNDWIVAPPGYQAFYCHGDCPFPLADHLNSTNHAIVQTLVNSVNSSIPKACCVPTELSAISMLYLDEYDKVVLKNYQEMVVEGCGCR
B2: BMP7: Bone Morphogenetic Protein 7, member of the TGFβ superfamily (protein, UniProt P18075 293-431, looked up)
Bone morphogenetic protein 7: STGSKQRSQNRSKTPKNQEALRMANVAENSSSDQRQACKKHELYVSFRDLGWQDWIIAPEGYAAYYCEGECAFPLNSYMNATNHAIVQTLVHFINPETVPKPCCAPTQLNAISVLYFDDSSNVILKKYRNMVVRACGCH

Test system: hES cell-derived clonal embryonic progenitor cell lines
Experiment: Differentiation of clonal embryonic progenitor cell lines into BAT cells in HyStem beads, marker expression by Illumina microarray / qPCR
Assay type: cell-based, human
Settings: 10 ng/mL BMP4 or 100 ng/mL BMP7 added to rosiglitazone/T3/CL-316,243 differentiation in HyStem beads
Method: Then, HyStem (1 ml, 1% w/v) is mixed with Gelin-S (1 ml, 1% w/v) immediately before use. […] Following complete gelation (20 min), Differentiation Medium is added to each well. […] Plates were then placed in a humidified incubator at 37° C. with ambient O2 and 10% CO2, and the cells were fed three-times weekly.
Total RNA was extracted directly from cells growing in 6-well plates or 10 cm tissue culture dishes using Qiagen RNeasy mini kits according to the manufacturer's instructions. RNA concentrations were measured using a Beckman DU530 or Nanodrop spectrophotometer and RNA quality was determined by denaturing agarose gel electrophoresis or using an Agilent 2100 bioanalyzer. […] Values of less than 120 relative fluorescence units (RFUs) were considered as nonspecific background signal.

Molecule | cell viability
B1 | greater levels of cell viability
B2 | greater levels of cell viability
